Laboratory results as given in patent US20250262210A1 (TRUSTEES OF COLUMBIA UNIVERSITY IN THE CITY OF NEW YORK, published 2025).

Assays:
Test in all cases: IP/MS, LZTR1 wild type-FLAG, U87
TUBGCP2 = TUBGCP2 (human, UniProt Q9BSJ2 1-902, limits assumed)
How it was run: (§1)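 Gel slices were reduced with 5 mM DTT, alkylated with 11 mM IAA and digested overnight at 37° C. with trypsin. Peptides were analysed on an Orbitrap Fusion Tribrid by LC-MS/MS.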

POLR3A = target: T1, POLR3A (human, UniProt O14802 1-1390)
T1 sequence (looked up): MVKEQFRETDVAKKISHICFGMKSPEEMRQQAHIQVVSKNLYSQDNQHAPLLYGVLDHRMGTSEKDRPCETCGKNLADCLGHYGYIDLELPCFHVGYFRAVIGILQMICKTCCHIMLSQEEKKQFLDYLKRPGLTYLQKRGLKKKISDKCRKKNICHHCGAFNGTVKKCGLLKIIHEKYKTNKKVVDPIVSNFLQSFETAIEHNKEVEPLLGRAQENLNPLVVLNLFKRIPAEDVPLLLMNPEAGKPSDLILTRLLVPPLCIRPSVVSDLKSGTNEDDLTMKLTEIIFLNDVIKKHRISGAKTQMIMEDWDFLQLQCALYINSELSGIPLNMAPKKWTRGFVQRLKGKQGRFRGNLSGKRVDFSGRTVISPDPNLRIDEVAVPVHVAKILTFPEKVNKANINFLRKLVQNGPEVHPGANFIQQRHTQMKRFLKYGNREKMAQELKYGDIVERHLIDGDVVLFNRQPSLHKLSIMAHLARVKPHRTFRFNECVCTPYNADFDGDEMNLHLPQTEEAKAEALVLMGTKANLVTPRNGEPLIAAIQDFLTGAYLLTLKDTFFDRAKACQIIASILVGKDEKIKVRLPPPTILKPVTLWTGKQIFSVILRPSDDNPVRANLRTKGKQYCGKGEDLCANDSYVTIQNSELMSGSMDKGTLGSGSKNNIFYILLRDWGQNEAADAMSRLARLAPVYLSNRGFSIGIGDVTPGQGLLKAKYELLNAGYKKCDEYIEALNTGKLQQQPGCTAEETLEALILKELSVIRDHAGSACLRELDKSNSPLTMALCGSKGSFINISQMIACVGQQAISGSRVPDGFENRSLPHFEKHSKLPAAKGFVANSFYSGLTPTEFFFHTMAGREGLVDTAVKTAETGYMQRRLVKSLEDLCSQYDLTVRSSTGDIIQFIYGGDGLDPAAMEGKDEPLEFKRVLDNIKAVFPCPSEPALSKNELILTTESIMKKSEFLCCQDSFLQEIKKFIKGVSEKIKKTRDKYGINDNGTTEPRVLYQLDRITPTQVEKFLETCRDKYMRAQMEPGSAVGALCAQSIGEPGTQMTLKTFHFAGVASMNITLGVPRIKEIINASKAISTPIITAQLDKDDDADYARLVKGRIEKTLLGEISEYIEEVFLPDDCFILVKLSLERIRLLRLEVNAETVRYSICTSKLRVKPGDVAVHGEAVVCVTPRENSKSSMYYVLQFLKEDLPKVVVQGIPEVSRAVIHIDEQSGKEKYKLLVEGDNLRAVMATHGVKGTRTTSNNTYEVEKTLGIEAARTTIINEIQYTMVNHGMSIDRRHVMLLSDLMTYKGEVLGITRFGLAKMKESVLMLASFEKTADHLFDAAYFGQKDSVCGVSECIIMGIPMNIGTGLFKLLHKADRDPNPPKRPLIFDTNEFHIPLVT
How it was run: as §1

MOCOS = target: T2, MOCOS (human, UniProt Q96EN8 1-888)
T2 sequence (looked up): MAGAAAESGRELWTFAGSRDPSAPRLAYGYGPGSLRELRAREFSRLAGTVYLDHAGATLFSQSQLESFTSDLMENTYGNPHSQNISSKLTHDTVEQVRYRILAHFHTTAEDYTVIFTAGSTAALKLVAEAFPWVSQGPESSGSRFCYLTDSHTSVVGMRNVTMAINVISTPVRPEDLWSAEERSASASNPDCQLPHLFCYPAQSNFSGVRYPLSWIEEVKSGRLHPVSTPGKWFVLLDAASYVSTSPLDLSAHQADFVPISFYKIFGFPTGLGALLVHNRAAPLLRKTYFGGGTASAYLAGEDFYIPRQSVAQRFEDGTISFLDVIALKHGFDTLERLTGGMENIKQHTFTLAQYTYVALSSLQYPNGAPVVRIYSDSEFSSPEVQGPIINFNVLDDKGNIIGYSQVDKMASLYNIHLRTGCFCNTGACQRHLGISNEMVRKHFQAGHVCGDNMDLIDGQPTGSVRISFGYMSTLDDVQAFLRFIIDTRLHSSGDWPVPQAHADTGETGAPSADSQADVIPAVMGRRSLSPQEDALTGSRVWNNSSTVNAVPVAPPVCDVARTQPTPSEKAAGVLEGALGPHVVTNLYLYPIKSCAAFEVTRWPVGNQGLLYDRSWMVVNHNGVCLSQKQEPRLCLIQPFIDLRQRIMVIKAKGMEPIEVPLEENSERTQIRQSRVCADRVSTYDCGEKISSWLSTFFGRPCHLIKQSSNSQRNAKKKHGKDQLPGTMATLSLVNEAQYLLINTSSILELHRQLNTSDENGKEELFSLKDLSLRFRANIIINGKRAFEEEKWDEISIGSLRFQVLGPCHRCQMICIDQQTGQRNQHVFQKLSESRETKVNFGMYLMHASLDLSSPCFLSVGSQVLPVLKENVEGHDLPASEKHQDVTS
How it was run: as §1

TUBGCP2, sequence (Q9BSJ2 whole entry, the tested form may be a part): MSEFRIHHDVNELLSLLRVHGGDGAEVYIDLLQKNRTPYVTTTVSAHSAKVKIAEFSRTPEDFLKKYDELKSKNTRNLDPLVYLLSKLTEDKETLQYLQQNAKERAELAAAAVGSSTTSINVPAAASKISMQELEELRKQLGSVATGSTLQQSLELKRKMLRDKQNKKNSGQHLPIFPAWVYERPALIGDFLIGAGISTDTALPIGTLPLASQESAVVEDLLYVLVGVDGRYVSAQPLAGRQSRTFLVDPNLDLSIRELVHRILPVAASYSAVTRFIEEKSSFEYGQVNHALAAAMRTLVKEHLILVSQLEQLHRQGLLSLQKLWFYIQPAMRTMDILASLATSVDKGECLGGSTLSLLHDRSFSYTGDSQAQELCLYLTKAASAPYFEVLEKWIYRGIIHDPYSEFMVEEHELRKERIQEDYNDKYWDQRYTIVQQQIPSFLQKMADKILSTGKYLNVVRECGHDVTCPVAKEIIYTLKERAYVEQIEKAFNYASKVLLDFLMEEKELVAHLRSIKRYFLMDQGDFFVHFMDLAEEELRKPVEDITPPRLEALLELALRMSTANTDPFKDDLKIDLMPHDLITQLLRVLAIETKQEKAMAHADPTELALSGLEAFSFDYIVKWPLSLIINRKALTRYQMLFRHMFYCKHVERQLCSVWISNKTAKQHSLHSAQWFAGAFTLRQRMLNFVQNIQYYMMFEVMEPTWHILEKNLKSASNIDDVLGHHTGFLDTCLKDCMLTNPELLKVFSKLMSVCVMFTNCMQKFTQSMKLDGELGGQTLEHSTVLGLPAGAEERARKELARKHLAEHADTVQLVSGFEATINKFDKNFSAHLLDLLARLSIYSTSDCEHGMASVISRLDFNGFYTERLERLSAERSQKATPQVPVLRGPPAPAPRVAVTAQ

- binding result (TUBGCP2): binds
- binding result (POLR3A): binds
- binding result (MOCOS): binds
B1: LZTR1-FLAG (other, human, UniProt Q8N653 1-840, looked up)
chain: MAGPGSTGGQIGAAALAGGARSKVAPSVDFDHSCSDSVEYLTLNFGPFETVHRWRRLPPCDEFVGARRSKHTVVAYKDAIYVFGGDNGKTMLNDLLRFDVKDCSWCRAFTTGTPPAPRYHHSAVVYGSSMFVFGGYTGDIYSNSNLKNKNDLFEYKFATGQWTEWKIEGRLPVARSAHGATVYSDKLWIFAGYDGNARLNDMWTIGLQDRELTCWEEVAQSGEIPPSCCNFPVAVCRDKMFVFSGQSGAKITNNLFQFEFKDKTWTRIPTEHLLRGSPPPPQRRYGHTMVAFDRHLYVFGGAADNTLPNELHCYDVDFQTWEVVQPSSDSEVGGAEVPERACASEEVPTLTYEERVGFKKSRDVFGLDFGTTSAKQPTQPASELPSGRLFHAAAVISDAMYIFGGTVDNNIRSGEMYRFQFSCYPKCTLHEDYGRLWESRQFCDVEFVLGEKEECVQGHVAIVTARSRWLRRKITQARERLAQKLEQEAAPVPREAPGVAAGGARPPLLHVAIREAEARPFEVLMQFLYTDKIKYPRKGHVEDVLLIMDVYKLALSFQLCRLEQLCRQYIEASVDLQNVLVVCESAARLQLSQLKEHCLNFVVKESHFNQVIMMKEFERLSSPLIVEIVRRKQQPPPRTPLDQPVDIGTSLIQDMKAYLEGAGAEFCDITLLLDGHPRPAHKAILAARSSYFEAMFRSFMPEDGQVNISIGEMVPSRQAFESMLRYIYYGEVNMPPEDSLYLFAAPYYYGFYNNRLQAYCKQNLEMNVTVQNVLQILEAADKTQALDMKRHCLHIIVHQFTKVSKLPTLRSLSQQLLLDIIDSLASHISDKQCAELGADI
notes: Expressed in HEK 293T, HeLa or U87 cells; used as cell lysate; also called LZTR1 wild type-FLAG; LZTR1 WT; not shown: FLAG tag at the C-terminus
